Reference: patent US20230272073A1

Tests used:
[1] = target: membrane-bound IGHV3-21/IGLV3-21^R110 BCR on murine TKO cells (human); experiment: flow cytometry dot plot, cell mix A (1:1 IGHV3-21/IGLV3-21^R110 BCR TKO cells and BCR-negative TKO cells), 2 µg/ml anti-human IgM-PE
[2] = target: IGHV3-21/IGLV3-21^G110 BCR on murine TKO cells (human) (UniProt P01871); experiment: flow cytometry dot plot, cell mix B (1:1 IGHV3-21/IGLV3-21^G110 BCR TKO cells and BCR-negative TKO cells), 2 µg/ml anti-human IgM-PE
Sequence of IGHV3-21/IGLV3-21^G110 BCR on murine TKO cells (human) (P01871 other isoform, or with tags, fused parts or gaps, chain 1 of 2): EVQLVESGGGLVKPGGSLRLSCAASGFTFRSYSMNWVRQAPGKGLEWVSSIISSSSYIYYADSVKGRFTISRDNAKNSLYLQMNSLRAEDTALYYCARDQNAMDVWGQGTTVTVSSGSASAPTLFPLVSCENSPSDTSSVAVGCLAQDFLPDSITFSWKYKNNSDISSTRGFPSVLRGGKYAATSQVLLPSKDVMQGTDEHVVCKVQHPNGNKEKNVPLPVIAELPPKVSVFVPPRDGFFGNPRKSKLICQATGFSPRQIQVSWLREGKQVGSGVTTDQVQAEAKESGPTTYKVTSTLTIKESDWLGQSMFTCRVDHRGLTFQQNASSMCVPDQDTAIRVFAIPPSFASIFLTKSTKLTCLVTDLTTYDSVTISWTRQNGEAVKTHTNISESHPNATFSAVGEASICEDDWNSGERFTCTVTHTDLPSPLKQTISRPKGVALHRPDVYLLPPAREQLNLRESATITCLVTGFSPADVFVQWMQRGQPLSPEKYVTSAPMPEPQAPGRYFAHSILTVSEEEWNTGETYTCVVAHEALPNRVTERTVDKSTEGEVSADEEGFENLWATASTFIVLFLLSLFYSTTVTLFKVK
Sequence of IGHV3-21/IGLV3-21^G110 BCR on murine TKO cells (human) (light, as listed by the source, chain 2 of 2): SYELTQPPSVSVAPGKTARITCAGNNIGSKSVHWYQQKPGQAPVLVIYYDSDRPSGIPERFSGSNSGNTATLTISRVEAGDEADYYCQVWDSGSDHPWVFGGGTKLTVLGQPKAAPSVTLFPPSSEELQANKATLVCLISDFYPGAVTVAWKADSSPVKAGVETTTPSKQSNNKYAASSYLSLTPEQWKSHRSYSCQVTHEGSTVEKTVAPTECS

Sequence of membrane-bound IGHV3-21/IGLV3-21^R110 BCR on murine TKO cells (human) (P01871 other isoform, or with tags, fused parts or gaps, chain 1 of 2): as the sequence (P01871 other isoform, or with tags, fused parts or gaps, chain 1 of 2) above
Sequence of membrane-bound IGHV3-21/IGLV3-21^R110 BCR on murine TKO cells (human) (light, as listed by the source, chain 2 of 2): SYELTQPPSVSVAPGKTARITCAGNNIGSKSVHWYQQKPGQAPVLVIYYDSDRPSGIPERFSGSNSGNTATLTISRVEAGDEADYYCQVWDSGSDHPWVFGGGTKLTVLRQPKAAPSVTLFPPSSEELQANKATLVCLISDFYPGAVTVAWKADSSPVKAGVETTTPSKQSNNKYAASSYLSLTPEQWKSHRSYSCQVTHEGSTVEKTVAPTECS

Q: How did the share of gated cells (P1) in quadrant Q1 (anti-IgM-PE positive, mAb01-01-APC negative) [1] turn out when “Anti-human IgM-PE, Clone: MHM-88, BioLegend Cat-No.: 314508 (antibody)” was run?
A: 2.78%

Q: What about the share of gated cells (P1) in quadrant Q2 (anti-IgM-PE positive, mAb01-01-APC positive) [1] of the same substance?
A: 45.5%

Q: What about the share of gated cells (P1) in quadrant Q1 (anti-IgM-PE positive, mAb01-01-APC negative) [2] of the same substance?
A: 42.2%

Q: And the share of gated cells (P1) in quadrant Q2 (anti-IgM-PE positive, mAb01-01-APC positive) [2]?
A: 1.11%
